Drawing on paper doi:10.1101/2025.02.27.640520, this text covers stoichiometry N for one substance.

The target of the assay is DeCLIC (Desulfofustis deltaproteobacterium). Briefly: cryo-EM structure.

Consider DeCLIC (natural protein), for which the stoichiometry N (as a rule, the number of molecules, sites or subunits per partner or assembly) was found to be 5.
